In the supplement of paper PMC10724198:

Tests used:
Saccharomyces cerevisiae [1] = experiment: protein stability index of tFT-peptide fusion in wild type (PSI (0-1 scale)); higher = more stable (slower turnover); conditions: genetic background: wild type
Method: (§1)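 MPS profiling in S. cerevisiae of two library types built from selected 12-aa C-degron peptides (IN1, IN2, LN1, LN3, VN2, R1-R5, W1-W3, Atg1 and Rpa12 C-termini): saturation mutagenesis libraries and C-terminal +1 capping libraries (13 aa). Each peptide is fused to the C-terminus of a sfGFP-mCherry timer, after a GGGS linker. Cells are FACS-sorted into 8 mCherry/sfGFP bins and sequenced. PSI runs from 0 (unstable) to 1 (stable), measured once in wild type and in the das1Δ or doa10Δ background.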

Saccharomyces cerevisiae [2] = experiment: protein stability index of tFT-peptide fusion in deletion strain of DAS1 (PSI (0-1 scale)); higher = more stable (slower turnover)
Method: as §1
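For protein stability index of tFT-peptide fusion in deletion strain of DAS1 in this document: PSI is a weighted mean of each variant's read distribution over the sorted stability bins, computed only for variants having over 10 reads in total.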
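For protein stability index of tFT-peptide fusion in wild type in this document: PSI derived as read-weighted mean over the 8 sorting bins, only variants exceeding 10 total reads kept, mCherry placed adjacent to the peptide and sfGFP distal.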

| Sequence | protein stability index (Saccharomyces cerevisiae [1]) | protein stability index (Saccharomyces cerevisiae [2]) |
| --- | --- | --- |
| VRGAVGGWRNVG | 0.364 | 0.676 |
| CTSCGYKHRTNN | 0.582 | 0.687 |
| KLHKKGQKQKIN | 0.0703 | 0.612 |
| LVVYLPCVACIN | 0.119 | 0.202 |
| VRGANGGWRLVG | 0.212 | 0.677 |
| VYGAVGGWRLVG | 0.137 | 0.677 |
| PDKRNHLIKLLNL | 0.298 | 0.665 |
| FSMRDTFRYWVN | 0.0684 | 0.833 |
| ARWRVGTWRGAS | 0.535 | 0.687 |
| LEVYLSCVACIN | 0.0193 | 0.0737 |
| CTSCGYKFRTNNP | 0.698 | 0.69 |
| RLIQPRPVQFLN | 0.0515 | 0.613 |
| RLIEPLPVQFLN | 0.076 | 0.578 |
| RLIQPLPVQFLNM | 0.584 | 0.655 |
| LVVYLSSVACIN | 0.0245 | 0.0579 |
| PSLAASFWRVVGR | 0.692 | 0.691 |
| FSMRWTFRYNVN | 0.214 | 0.568 |
| RAIQPLPVQFLN | 0.121 | 0.674 |
| FSMRWTFRYWVQ | 0.205 | 0.48 |
| PSLAASCWRVVG | 0.143 | 0.675 |
| ARERVGLWRGAS | 0.609 | 0.726 |
| FLIQPLPVQFLN | 0.0527 | 0.582 |
| PDKRNQLIKLLN | 0.0747 | 0.633 |
| FSMWWTFRYWVN | 0.077 | 0.444 |

| Sequence | protein stability index (Saccharomyces cerevisiae [1]) | protein stability index (Saccharomyces cerevisiae [2]) |
| --- | --- | --- |
| RLIQPLPPQFLN | 0.132 | 0.521 |
| FSMRWTFRYWVNQ | 0.141 | 0.558 |
| RLIWPLPVQFLN | 0.0399 | 0.57 |
| RLIQPLPVQFLR | 0.668 | 0.58 |
| FSMRWTFRYVVN | 0.117 | 0.496 |
| FSMRWSFRYWVN | 0.0724 | 0.544 |
| CKSCGYKFRTNN | 0.276 | 0.697 |
| ARWRVGLWIGAS | 0.367 | 0.572 |
| PDKRNHIIKLLN | 0.132 | 0.57 |
| LLVYLSCVACIN | 0.0174 | 0.0429 |
| FSMRWTFRYHVN | 0.035 | 0.472 |
| KKHKKGPKQKIN | 0.175 | 0.603 |
| FSMRWTFRYWVD | 0.46 | 0.467 |
| PPKRNHLIKLLN | 0.116 | 0.581 |
| DSLAASFWRVVG | 0.135 | 0.697 |
| QSLAASFWRVVG | 0.13 | 0.698 |
| FHMRWTFRYWVN | 0.0327 | 0.466 |
| CTSCNYKFRTNN | 0.407 | 0.681 |
| APWRVGLWRGAS | 0.512 | 0.701 |
| CVSCGYKFRTNN | 0.243 | 0.705 |
| CTSCGYKFYTNN | 0.374 | 0.701 |
| ARWRVLLWRGAS | 0.4 | 0.628 |
| CTSCGYKFRYNN | 0.369 | 0.702 |
| PSLAASFWRVDG | 0.68 | 0.7 |

| Sequence | protein stability index (Saccharomyces cerevisiae [1]) | protein stability index (Saccharomyces cerevisiae [2]) |
| --- | --- | --- |
| AVVYLSCVACIN | 0.0207 | 0.038 |
| PSLAHSFWRVVG | 0.167 | 0.669 |
| ARWRVGLWRGAY | 0.598 | 0.682 |
| RLIQPLLVQFLN | 0.0592 | 0.575 |
| LVVYLSCVLCIN | 0.0221 | 0.141 |
| FSMRWTFRYWVNN | 0.137 | 0.558 |
| PDIRNHLIKLLN | 0.134 | 0.675 |
| VRGAVGGWRCVG | 0.222 | 0.658 |
| ASWRVGLWRGAS | 0.516 | 0.703 |
| VRWAVGGWRLVG | 0.0824 | 0.685 |
| PSLAADFWRVVG | 0.171 | 0.712 |
| HDKRNHLIKLLN | 0.077 | 0.581 |
| PSLAAGFWRVVG | 0.164 | 0.678 |
| LVVYLSGVACIN | 0.181 | 0.264 |
| NVVYLSCVACIN | 0.0156 | 0.0341 |
| LVVYLSCVACINA | 0.0212 | 0.0343 |
| PSLAALFWRVVG | 0.129 | 0.674 |
| LVVYDSCVACIN | 0.368 | 0.468 |
| VRGAVGGWRLVW | 0.714 | 0.671 |
| KKHKKGQKQKIS | 0.101 | 0.607 |
| LDKRNHLIKLLN | 0.137 | 0.599 |
| RLIQPLPVQFLNK | 0.647 | 0.676 |
| LVVYLWCVACIN | 0.0141 | 0.0851 |
| SSLAASFWRVVG | 0.16 | 0.692 |

| Sequence | protein stability index (Saccharomyces cerevisiae [1]) | protein stability index (Saccharomyces cerevisiae [2]) |
| --- | --- | --- |
| RLIQPLPHQFLN | 0.0684 | 0.645 |
| PSLAASMWRVVG | 0.147 | 0.73 |
| YVVYLSCVACIN | 0.0134 | 0.0254 |
| ARNRVGLWRGAS | 0.606 | 0.693 |
| FSMRWTFRYWDN | 0.0861 | 0.554 |
| FSMRWTFRYWVY | 0.0725 | 0.374 |
| FSMRWTHRYWVN | 0.0511 | 0.561 |
| PDKRYHLIKLLN | 0.0495 | 0.597 |
| VRGAQGGWRLVG | 0.191 | 0.701 |
| RRGAVGGWRLVG | 0.16 | 0.687 |
| LKILRQYMNHQN | 0.242 | 0.675 |
| LKILRLKMNHQN | 0.171 | 0.65 |
| VRGAVAGWRLVG | 0.156 | 0.655 |
| RLIQPLPAQFLN | 0.0736 | 0.602 |
| LKILRQKMNHSN | 0.231 | 0.674 |
| ARWRVGLWRTAS | 0.0835 | 0.684 |
| PDKRNHRIKLLN | 0.159 | 0.661 |
| ARWRVGLWRGAR | 0.663 | 0.666 |
| VRGHVGGWRLVG | 0.131 | 0.672 |
| CTSCGYKFRWNN | 0.49 | 0.737 |
| PDVRNHLIKLLN | 0.119 | 0.613 |
| FSMRVTFRYWVN | 0.0315 | 0.352 |
| PSMRWTFRYWVN | 0.0877 | 0.571 |
| MLIQPLPVQFLN | 0.0562 | 0.654 |

| Sequence | protein stability index (Saccharomyces cerevisiae [1]) | protein stability index (Saccharomyces cerevisiae [2]) |
| --- | --- | --- |
| LKILRQKDNHQN | 0.664 | 0.666 |
| FSMRWAFRYWVN | 0.115 | 0.58 |
| CTSCGYKFRTNNI | 0.716 | 0.699 |
| VRGAVGGWRLFG | 0.333 | 0.694 |
| FCMRWTFRYWVN | 0.0388 | 0.481 |
| SDKRNHLIKLLN | 0.156 | 0.607 |
| CTSCGYKFRTPN | 0.689 | 0.71 |
| SRGAVGGWRLVG | 0.171 | 0.677 |
| PSLAASFWRGVG | 0.232 | 0.707 |
| CTSCGYKFRHNN | 0.555 | 0.705 |
| CTSCGYKFRVNN | 0.282 | 0.687 |
| CTSCGYKWRTNN | 0.153 | 0.659 |
| GLIQPLPVQFLN | 0.0806 | 0.62 |
| CTSCGYKFITNN | 0.325 | 0.709 |
| FSMRWTDRYWVN | 0.0929 | 0.568 |
| YKILRQKMNHQN | 0.196 | 0.668 |
| ARWRVGLWRGAD | 0.694 | 0.672 |
| ASLAASFWRVVG | 0.135 | 0.695 |
| LKILRQIMNHQN | 0.244 | 0.693 |
| LVVYLSCVQCIN | 0.0151 | 0.0333 |
| ARWRVGLWRGHS | 0.602 | 0.691 |
